US11026999B2, “Insulin glargine/lixisenatide fixed ratio formulation” (SANOFI-AVENTIS DEUTSCHLAND GMBH, priority 2013, dated 2021)

What was measured:
type 2 diabetic patients [1] = assay: Symptomatic hypoglycemia (Example 1); assay type: in vivo, human; conditions: Safety population
Description: Safety: Adverse events, serious adverse events, symptomatic hypoglycemia, vital signs, electrocardiogram (ECG), safety laboratory values.
Symptomatic hypoglycemia events were documented on a specific hypoglycemia event form, and not an AE CRF page, and thus were not included in the TEAE summaries.

Body weight (Example 1) = assay type: in vivo, human; conditions: for Body weight change from baseline to Week 24 (LOCF), LS Mean (SE): ANCOVA
Description: (§1) Criteria for Evaluation: • Efficacy: • Primary Endpoint: • Change in HbA1c from baseline to Week 24 • Secondary Endpoints: • Change in 2-hour PPG during meal test from baseline to Week 24 • Change in 2-hour plasma glucose excursion during meal test from baseline to Week 24 • Percentage of patients reaching HbA1c ≤6.5% or <7% at Week 24 • Change in 7-point SMPG profiles from baseline to Week 24 (each time point and mean daily value) • Change in body weight from baseline to Week 24, • Average daily Insulin glargine dose at Week 24 • Change in FPG from baseline to Week 24 • Percentage of patients requiring rescue therapy during the 24-week open-label treatment period • Change in 30-minute and 1-hour PPG and plasma glucose excursion during meal test from baseline to week 24 • Percentage of patients reaching HbA1c <7% at week 24 with no documented symptomatic hypoglycemia during the 24-week open label treatment period • Percentage of patients reaching HbA1c <7% with no weight gain at week 24
(§2) All continuous secondary efficacy endpoints were analyzed using a similar ANCOVA model with treatment, randomization strata of screening HbA1c (<8%, ≥8%), randomization strata of screening BMI (<30 kg/m^2, ≥30 kg/m^2) and country as fixed effects and using the baseline value of the corresponding parameter as a covariate. Insulin glargine dose was not included in the ANCOVA model as a covariate since patients enrolled were insulin-naïve.

type 2 diabetic patients [2] = conditions: in vivo
Description: Safety: The safety analysis was conducted on the safety population, defined as all randomized patients who received at least one dose of IMP (regardless of the amount of treatment administered). The evaluation of AEs, laboratory, vital sign, and ECG data was descriptive.

type 2 diabetic patients [3] = assay: 2-hour plasma glucose excursion during standardized meal test (Example 1); assay type: in vivo, human; conditions: mITT population; for 2-hour plasma glucose excursion change from baseline to Week 24 (LOCF), LS Mean (SE): ANCOVA
Description: The diabetes type 2 patient may have a glucose excursion (in particular a 2-hour postprandial glucose excursion of at least 2 mmol/L, at least 3 mmol/L, at least 4 mmol/L, at least 5 mmol/L, at least 5.5 mmol/L, at least 6 mmol/L, at least 6.5 mmol/L, or at least 7 mmol/L at the onset of the treatment with the composition of the present invention. In the present invention, the glucose excursion is in particular the difference of the 2-hour postprandial plasma glucose concentration and the plasma glucose concentration 30 minutes prior to a meal test.
as §1, §2

type 2 diabetic patients [4] = assay: Lipase, amylase and calcitonin monitoring (Example 1); design: species or system human; conditions: in vivo
Description: Per protocol, any increase in amylase and/or lipase above twice the upper limit of normal range (ULN) or in Calcitonin ≥20 pg/mL that had been confirmed by a repeat measurement was to be monitored and documented on a specific AE form. […] No patients reported a TEAE of increased calcitonin (≥20 pg/mL).
The number of patients who had at least 1 value of lipase or amylase ULN, or at least 1 value of calcitonin ≥20 pg/ml during the on-treatment period was also summarized. One patient in the insulin glargine group had at least 1 value of amylase ≥3 ULN, and 5 patients (4 in the combination group and 1 in the insulin glargine group) had at least 1 value of lipase ≥3 ULN. One patient in the insulin glargine group had 1 value of calcitonin ≥20 pg/ml (but <50 pg/ml) with retested values within the normal range.

type 2 diabetic patients [5] = assay: Injection site reactions and allergic reactions adjudicated by ARAC (Example 1); assay type: in vivo, human
Description: A total of 6 patients (5 patients in the combination group and 1 patient in the insulin glargine group) experienced injection site reactions (Table 19). None of these reactions were considered serious or severe or led to treatment discontinuation.
A total of 2 patients (1 [0.6%] in each group) reported 6 events positively adjudicated as allergic reactions by the ARAC with the same diagnosis of allergic rhinitis. None was adjudicated as possibly related to the IMP (table 20).

type 2 diabetic patients [6] = assay: Fasting plasma glucose (Example 1); assay type: in vivo, human; conditions: mITT population; for Fasting plasma glucose change from baseline to Week 24 (LOCF), LS Mean (SE): ANCOVA
Description: as §1, §2

type 2 diabetic patients [7] = assay: 2-hour postprandial plasma glucose during standardized meal test (Example 1); assay type: in vivo, human; conditions: mITT; for 2-hour postprandial plasma glucose change from baseline to Week 24 (LOCF), LS Mean (SE): ANCOVA
Description: as §1, §2

[8] = investigator reported terms, Safety population

Gly(A21)-Arg(B31)-Arg(B32)-human insulin [Insulin Glargine]
Documented symptomatic hypoglycemia (plasma glucose <54 mg/dL [3.0 mmol/L]): Number of events (type 2 diabetic patients [1]): 10 | Documented symptomatic hypoglycemia (plasma glucose <54 mg/dL [3.0 mmol/L]): Number of events per 100 patient years (type 2 diabetic patients [1]): 13.2 events per 100 patient years | Documented symptomatic hypoglycemia (plasma glucose <54 mg/dL [3.0 mmol/L]): Number of patients with events (type 2 diabetic patients [1]): 4 (2.5%) n (%) | Documented symptomatic hypoglycemia (plasma glucose <60 mg/dL [3.3 mmol/L]): Number of events (type 2 diabetic patients [1]): 18 | Documented symptomatic hypoglycemia (plasma glucose <60 mg/dL [3.3 mmol/L]): Number of events per 100 patient years (type 2 diabetic patients [1]): 23.8 events per 100 patient years | Documented symptomatic hypoglycemia (plasma glucose <60 mg/dL [3.3 mmol/L]): Number of patients with events (type 2 diabetic patients [1]): 9 (5.6%) n (%) | Documented symptomatic hypoglycemia (plasma glucose <=70 mg/dL [3.9 mmol/L]): Number of events (type 2 diabetic patients [1]): 79 | Documented symptomatic hypoglycemia (plasma glucose <=70 mg/dL [3.9 mmol/L]): Number of events per 100 patient years (type 2 diabetic patients [1]): 104.5 events per 100 patient years | Documented symptomatic hypoglycemia (plasma glucose <=70 mg/dL [3.9 mmol/L]): Number of patients with events (type 2 diabetic patients [1]): 37 (22.8%) n (%) | Probable symptomatic hypoglycemia: Number of events (type 2 diabetic patients [1]): 5 | Probable symptomatic hypoglycemia: Number of events per 100 patient years (type 2 diabetic patients [1]): 6.6 events per 100 patient years | Probable symptomatic hypoglycemia: Number of patients with events (type 2 diabetic patients [1]): 5 (3.1%) n (%) | Severe symptomatic hypoglycemia: Number of events (type 2 diabetic patients [1]): 0 | Severe symptomatic hypoglycemia: Number of events per 100 patient years (type 2 diabetic patients [1]): 0.0 events per 100 patient years | Severe symptomatic hypoglycemia: Number of patients with events (type 2 diabetic patients [1]): 0 n (%) | Symptomatic hypoglycemia: Number of events per 100 patient years (type 2 diabetic patients [1]): 111.1 events per 100 patient years | Symptomatic hypoglycemia: Number of events (type 2 diabetic patients [1]; TEAE period): 84 | Symptomatic hypoglycemia: Number of patients with events (type 2 diabetic patients [1]; documented, probable and severe, TEAE period): 40 (24.7%) n (%) | Body weight at Week 24 (LOCF), Mean (SD) (Body weight (Example 1); mITT population): 92.09 (16.30) kg | Body weight at Week 24 (LOCF), Median (Body weight (Example 1); mITT population): 91.00 kg | Body weight change from baseline to Week 24 (LOCF), Mean (SD) (Body weight (Example 1); mITT population): 0.39 (2.96) kg | Body weight change from baseline to Week 24 (LOCF), Median (Body weight (Example 1); mITT population): 0.35 kg | Body weight change from baseline to Week 24 (LOCF), LS Mean (SE) (Body weight (Example 1); mITT population): 0.48 (0.282) kg | Body weight change from baseline to Week 24 (LOCF), LS Mean (SE) (Body weight (Example 1); mITT population, listed as insulin glargine): +0.48 kg | LS mean body weight increase from baseline to week 24 (Body weight (Example 1); worded as increased by): 0.48 kg | TEAE: HLGT: Infections - pathogen unspecified (type 2 diabetic patients [2]): 31 (19.1%) n (%) | TEAE: HLGT: Ocular infections, irritations and inflammations (type 2 diabetic patients [2]): 4 (2.5%) n (%) | TEAE: HLGT: Viral infectious disorders (type 2 diabetic patients [2]): 8 (4.9%) n (%) | TEAE: HLT: Abdominal and gastrointestinal infections (type 2 diabetic patients [2]): 1 (0.6%) n (%) | TEAE: HLT: Conjunctival infections, irritations and inflammations (type 2 diabetic patients [2]): 2 (1.2%) n (%) | TEAE: HLT: Diarrhoea (excl infective) (type 2 diabetic patients [2]): 6 (3.7%) n (%) | TEAE: HLT: Upper respiratory tract infections (type 2 diabetic patients [2]): 21 (13.0%) n (%) | TEAE: HLT: Urinary tract infections (type 2 diabetic patients [2]): 3 (1.9%) n (%) | TEAE: Infections and infestations (type 2 diabetic patients [2]): 38 (23.5%) n (%) | TEAE: Upper respiratory tract infection (type 2 diabetic patients [2]): 5 (3.1%) n (%) | TEAE: Urinary tract infection (type 2 diabetic patients [2]): 1 (0.6%) n (%) | Treatment emergent SAE: HLGT: Infections - pathogen unspecified (type 2 diabetic patients [2]): 1 (0.6%) n (%) | Treatment emergent SAE: HLT: Urinary tract infections (type 2 diabetic patients [2]): 1 (0.6%) n (%) | Treatment emergent SAE: Infections and infestations (type 2 diabetic patients [2]): 1 (0.6%) n (%) | Treatment emergent SAE: Urinary tract infection (type 2 diabetic patients [2]): 1 (0.6%) n (%) | TEAE: HLT: Dental and oral soft tissue infections (type 2 diabetic patients [2]; po): 3 (1.9%) n (%) | 2-hour plasma glucose excursion at Week 24 (LOCF), Mean (SD) (type 2 diabetic patients [3]): 5.33 (2.79) mmol/L | 2-hour plasma glucose excursion at Week 24 (LOCF), Median (type 2 diabetic patients [3]): 5.05 mmol/L | 2-hour plasma glucose excursion change from baseline to Week 24 (LOCF), Mean (SD) (type 2 diabetic patients [3]): −0.61 (3.03) mmol/L | 2-hour plasma glucose excursion change from baseline to Week 24 (LOCF), Median (type 2 diabetic patients [3]): -0.75 mmol/L | 2-hour plasma glucose excursion change from baseline to Week 24 (LOCF), LS Mean (SE) (type 2 diabetic patients [3]): −0.67 (0.269) mmol/L | 2-hour plasma glucose excursion change from baseline to Week 24 (LOCF), LS Mean (SE) (type 2 diabetic patients [3]; listed as insulin glargine): -0.67 mmol/L | Patients with 1 value of calcitonin ≥20 pg/ml (but <50 pg/ml) (type 2 diabetic patients [4]): One | Patients with TEAE of amylase increased (>2 ULN) reported on the specific AE form (type 2 diabetic patients [4]): 1 patient | Patients with TEAE of lipase increased (>2 ULN) reported on the specific AE form (type 2 diabetic patients [4]): 1 [0.6%] n (%) | Patients with at least 1 value of amylase ≥3 ULN (type 2 diabetic patients [4]): One | Patients with at least 1 value of lipase ≥3 ULN (type 2 diabetic patients [4]): 1 patients | Injection site reaction (type 2 diabetic patients [5]; ARAC diagnosis terms, Safety population): 0 n (%) | Rhinitis allergic (ARAC diagnosis ALLERGIC RHINITIS) (type 2 diabetic patients [5]; Not related to IMP, Safety population): 1 (0.6%) n (%) | Events adjudicated as an allergic reaction by ARAC (type 2 diabetic patients [5]; Not related to IMP, TEAE period, Safety population): 1 (0.6%) n (%) | Any injection site reactions (type 2 diabetic patients [5]; TEAE period, Safety population): 1 (0.6%) n (%) | Injection site reactions: PTs coded from the ARAC diagnosis terms (type 2 diabetic patients [5]; TEAE period, Safety population): 0 n (%) | Injection site reactions: PTs coded from the investigator reported terms (type 2 diabetic patients [5]; TEAE period, Safety population): 1 (0.6%) n (%) | Patients who experienced injection site reactions (type 2 diabetic patients [5]; in vivo): 1 patients | Injection site pain (type 2 diabetic patients [5]; [8]): 1 (0.6%) n (%) | Injection site pruritus (type 2 diabetic patients [5]; [8]): 0 n (%) | Injection site rash (type 2 diabetic patients [5]; [8]): 0 n (%) | Injection site urticaria (type 2 diabetic patients [5]; [8]): 0 n (%) | Rhinitis allergic (ARAC diagnosis ALLERGIC RHINITIS) (type 2 diabetic patients [5]; relationship to study treatment: All, Safety population): 1 (0.6%) n (%) | Events adjudicated as an allergic reaction by ARAC (type 2 diabetic patients [5]; relationship to study treatment: All, TEAE period, Safety population): 1 (0.6%) n (%) | Fasting plasma glucose at Week 24 (LOCF), Mean (SD) (type 2 diabetic patients [6]): 6.20 (1.35) mmol/L | Fasting plasma glucose at Week 24 (LOCF), Median (type 2 diabetic patients [6]): 5.95 mmol/L | Fasting plasma glucose change from baseline to Week 24 (LOCF), Mean (SD) (type 2 diabetic patients [6]): −3.28 (2.39) mmol/L | Fasting plasma glucose change from baseline to Week 24 (LOCF), Median (type 2 diabetic patients [6]): -3.00 mmol/L | Fasting plasma glucose change from baseline to Week 24 (LOCF), LS Mean (SE) (type 2 diabetic patients [6]): −3.51 (0.128) mmol/L | Fasting plasma glucose change from baseline to Week 24 (LOCF), LS Mean (SE) (type 2 diabetic patients [6]; listed as insulin glargine): -3.51 mmol/L | 2-hour postprandial plasma glucose at Week 24 (LOCF), Mean (SD) (type 2 diabetic patients [7]): 11.55 (2.83) mmol/L | 2-hour postprandial plasma glucose at Week 24 (LOCF), Median (type 2 diabetic patients [7]): 11.10 mmol/L | 2-hour postprandial plasma glucose change from baseline to Week 24 (LOCF), Mean (SD) (type 2 diabetic patients [7]): −3.96 (4.05) mmol/L | 2-hour postprandial plasma glucose change from baseline to Week 24 (LOCF), Median (type 2 diabetic patients [7]): -3.90 mmol/L | 2-hour postprandial plasma glucose change from baseline to Week 24 (LOCF), LS Mean (SE) (type 2 diabetic patients [7]): −4.33 (0.274) mmol/L | 2-hour postprandial plasma glucose change from baseline to Week 24 (LOCF), LS Mean (SE) (type 2 diabetic patients [7]; listed as insulin glargine): -4.33 mmol/L
